In the test the target is human lymphotoxin (TNFβ) (human) (UniProt P01374). As to the kind of experiment: cell-based or functional assay.
Sequence of human lymphotoxin (TNFβ) (human) (P01374 35-205 limits assumed): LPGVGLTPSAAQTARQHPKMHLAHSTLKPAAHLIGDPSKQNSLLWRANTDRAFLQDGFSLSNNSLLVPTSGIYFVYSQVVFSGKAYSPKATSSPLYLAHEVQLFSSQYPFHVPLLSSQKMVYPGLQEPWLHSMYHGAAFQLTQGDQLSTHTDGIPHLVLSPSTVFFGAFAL

“p55-sf2 (p55 TNF receptor / IgG1 heavy chain single fusion with truncated light chain JCK) (from UniProt P19438) (Fc fusion)” displayed an amount needed for the same inhibition of TNFβ cytotoxicity, against p75P-sf2 (fold (against p75P-sf2)) of 3.
